Key:
CCR10 [1] = molecular target: T1, CCR10 (Homo sapiens, UniProt Q9NPB9); test: Spectrum of ligands that bind to CCR10; type: binding; parameters: Full length CCR10 expression constructs were made in pIRESpuro expression vector; expressed in transfected cells; HEK293-CCR10)
T1 sequence (Q9NPB9 1-350): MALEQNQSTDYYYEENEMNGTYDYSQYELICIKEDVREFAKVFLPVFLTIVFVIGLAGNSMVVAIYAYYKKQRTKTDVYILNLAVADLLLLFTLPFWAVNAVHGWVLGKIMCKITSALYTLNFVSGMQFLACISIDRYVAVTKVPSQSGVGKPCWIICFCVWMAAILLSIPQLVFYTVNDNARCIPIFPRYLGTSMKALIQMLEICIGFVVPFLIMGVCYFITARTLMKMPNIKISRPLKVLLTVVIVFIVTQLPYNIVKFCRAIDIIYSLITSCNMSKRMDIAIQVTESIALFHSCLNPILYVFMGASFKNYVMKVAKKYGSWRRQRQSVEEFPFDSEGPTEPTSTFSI
Text: (§1) Furthermore ELC-SK mediated adhesion was abolished in the presence of soluble native ELC as a competitor (FIG. 3A, top row). […] Moreover, radiolabeled ELC was used in a traditional homologous competition assay in the presence of increasing concentrations of unlabeled ELC. […] Taken together, the stalkokine-based adhesion and radiolabeled ligand binding/homologous competition assays indicate that CCR10 is a new chemokine receptor that bound a novel compliment of chemokines.

CCR7 = molecular target: T2, CCR7 (Homo sapiens, UniProt P32248); test: Binding of CCR7-NSO cells to immobilized stalkokines
T2 construct: host or cells: mouse myeloma NSO
T2 sequence (P32248 25-378): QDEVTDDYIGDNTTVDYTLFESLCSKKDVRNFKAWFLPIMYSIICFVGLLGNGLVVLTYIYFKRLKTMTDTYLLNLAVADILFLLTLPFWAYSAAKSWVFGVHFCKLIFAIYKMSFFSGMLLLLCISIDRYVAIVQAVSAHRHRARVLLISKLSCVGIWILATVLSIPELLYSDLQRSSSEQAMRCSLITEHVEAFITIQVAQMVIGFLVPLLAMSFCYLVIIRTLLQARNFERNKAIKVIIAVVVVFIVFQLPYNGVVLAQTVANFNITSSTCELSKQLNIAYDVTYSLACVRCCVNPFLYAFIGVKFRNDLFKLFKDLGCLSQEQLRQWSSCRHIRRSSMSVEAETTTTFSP
Description: (§2) In one set of experiments, five 8 well chamber slides (Lab-Tek II, Nalge Nunc International, Rochester, N.Y.), 250 ul of 10 ug/ml anti-his antibody (R&D Systems, Minneapolis, Minn.) in PBS was added to each well and incubated at room temperature overnight (typically 16 hours). Following, the liquid in each well was aspirated and washed once for approximately 5 minutes with 500 ul of PBS. The wells were then “blocked” (blocked for any additional protein binding sites) with the addition of 250 ul of blocking solution (2% fetal bovine serum, 0.5% BSA in PBS) and incubation for 1 hour at room temp (e.g., 20° C.). The liquid in each well was aspirated and 250 ul of supernatant containing the chemokine-stalk-immobilization domain fusion proteins (SDF1a-FRAC, finetaxin-FRAC, CCL27-FRAC, 1309-FRAC, MIP3a-FRAC, ELC-FRAC, SLC-FRAC, MDC-FRAC, TARC-FRAC, or BRAK-FRAC) or the control supernatant was added to two wells. Each slide contained two wells with control supernatant (from mock-transfected cells) and two wells with the positive control SDF1a (which binds the ubiquitous chemokine receptor CXCR4). The four other wells were for experimental samples. The supernatants were incubated for one hour at room temperature (typically 20° C.), then incubated for an additional hour at 37° C. […] The slide was then ready for addition of cells for assay. […]

wild type HEK293 cells = test: Homologous competition binding of radiolabeled ELC on wild type HEK293 cells; parameters: species or system human; conditions: wildtype (wt) HEK293 cells
Text: as §1

CCR10 [2] = molecular target: T1, CCR10; test: Binding of CCR10-NSO cells to immobilized stalkokines; parameters: expressed in transfected cells; host or cells: not clear (NSO per the earlier reading)
Description: as §2

CCR10 [3] = molecular target: T1, CCR10; test: Homologous competition binding of radiolabeled chemokine on HEK293-CCR10 cells; parameters: Full length CCR10 expression constructs were made in pIRESpuro expression vector; expressed in transfected cells; HEK293-CCR10)
Text: Human, viral and murine recombinant chemokines were obtained from R&D Systems (Minneapolis, Minn.; http://cytokine.rndsystems.com/cyt_cat/cyt_cat.html). ^125I-labeled ELC and TECK were obtained from Amersham. Full length CCR10 expression constructs were made in pIRESpuro expression vector (Clontech, Palo Alto, Calif.) with a FLAG epitope tag and prolactin signal sequence, and used to generated stable transfectants in HEK293 cells. Transient and stable transfections for CCR10 and stalkokines were done using Superfect reagent (Qiagen, Valencia, Calif.) following manufacturer's protocol. Stably-transfected cells were generated by selection in 2 ug/mL puromycin for 7 days, and expression was confirmed by FACS analysis of the FLAG epitope using anti-FLAG M1 (Sigma, St. Louis, Mo.) and 2′ anti-mouse PE conjugate (Coulter Immunotech, Miami, Fla.).
as §1

Affinity of binding to CCR10 (CCR10 [1])	Binding to Stalkokine form (CCR7)	Binding to Stalkokine form (CCR10 [2])	Binding of radiolabeled chemokine in homologous competition with cold chemokine (CCR10 [3])	Substance	Binding of radiolabeled ELC in homologous competition with unlabeled ELC (wild type HEK293 cells)
lower affinity				BLC: chemokine	
high affinity	yes	yes	significant binding	ELC: EBl1 ligand chemokine, soluble recombinant native form	not

From patent publication US6699677B1, “Tethered ligands and methods of use” (ChemoCentryx, Inc., priority 1999, dated 2004)
